IntAct's records for PubMed 17875927

B1: CBL-interacting serine/threonine-protein kinase 24 (Arabidopsis thaliana (Mouse-ear cress)), Q9LDI3 (parent)
chain: MTKKMRRVGKYEVGRTIGEGTFAKVKFARNTDTGDNVAIKIMAKSTILKNRMVDQIKREISIMKIVRHPNIVRLYEVLASPSKIYIVLEFVTGGELFDRIVHKGRLEESESRKYFQQLVDAVAHCHCKGVYHRDLKPENLLLDTNGNLKVSDFGLSALPQEGVELLRTTCGTPNYVAPEVLSGQGYDGSAADIWSCGVILFVILAGYLPFSETDLPGLYRKINAAEFSCPPWFSAEVKFLIHRILDPNPKTRIQIQGIKKDPWFRLNYVPIRAREEEEVNLDDIRAVFDGIEGSYVAENVERNDEGPLMMNAFEMITLSQGLNLSALFDRRQDFVKRQTRFVSRREPSEIIANIEAVANSMGFKSHTRNFKTRLEGLSSIKAGQLAVVIEIYEVAPSLFMVDVRKAAGETLEYHKFYKKLCSKLENIIWRATEGIPKSEILRTITF

Variants of: B1
Conditions: with vatb1_arath VHA-B1, P11574
vatb1_arath VHA-B1, P11574, sequence (P11574 whole entry): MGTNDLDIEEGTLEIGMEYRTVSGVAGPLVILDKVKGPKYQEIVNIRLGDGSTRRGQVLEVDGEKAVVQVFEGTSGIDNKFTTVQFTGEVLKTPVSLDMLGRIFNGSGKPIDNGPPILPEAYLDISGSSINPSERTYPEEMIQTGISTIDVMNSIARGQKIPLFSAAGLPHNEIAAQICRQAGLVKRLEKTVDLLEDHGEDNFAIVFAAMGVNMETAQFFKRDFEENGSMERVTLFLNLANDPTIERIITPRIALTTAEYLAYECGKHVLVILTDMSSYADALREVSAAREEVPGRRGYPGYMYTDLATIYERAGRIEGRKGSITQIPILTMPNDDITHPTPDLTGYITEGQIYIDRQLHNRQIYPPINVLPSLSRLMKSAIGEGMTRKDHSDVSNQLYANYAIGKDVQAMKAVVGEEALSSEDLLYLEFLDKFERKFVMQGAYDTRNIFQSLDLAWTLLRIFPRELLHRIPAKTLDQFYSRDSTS
In the case of K40N, the “effect of a mutation on the interaction” value is reported as “decreasing interaction”.

Variants of: B1
Conditions: with vatb2_arath VHA-B2, Q9SZN1
vatb2_arath VHA-B2, Q9SZN1, sequence (Q9SZN1 whole entry): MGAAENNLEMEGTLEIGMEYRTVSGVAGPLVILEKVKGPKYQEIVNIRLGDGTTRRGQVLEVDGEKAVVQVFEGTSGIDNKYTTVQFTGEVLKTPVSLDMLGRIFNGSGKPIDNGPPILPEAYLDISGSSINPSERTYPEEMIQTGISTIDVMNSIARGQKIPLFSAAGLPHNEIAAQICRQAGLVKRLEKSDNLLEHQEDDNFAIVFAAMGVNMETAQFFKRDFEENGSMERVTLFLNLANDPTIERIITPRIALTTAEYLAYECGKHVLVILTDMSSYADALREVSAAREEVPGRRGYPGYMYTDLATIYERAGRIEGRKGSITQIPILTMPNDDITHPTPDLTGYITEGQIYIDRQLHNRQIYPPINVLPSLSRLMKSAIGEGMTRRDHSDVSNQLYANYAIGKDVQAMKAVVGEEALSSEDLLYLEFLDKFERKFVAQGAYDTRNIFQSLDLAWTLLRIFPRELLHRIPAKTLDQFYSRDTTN
In the case of K40N, the “effect of a mutation on the interaction” value is reported as “decreasing interaction”.
